Here are results for 69 substances from the Human Domainome abundance scans (Beltran et al. 2025).

± gives the uncertainty stated by the source.

The series in a line: abundance fitness (aPCA) (normalised: wild type 0, dead -1); higher = more abundant; growth selection in yeast, the domain comes from the species named. The settings on record: Homo sapiens.
“Scaffold attachment factor B1 S55M, Q15424” returned an abundance fitness of -0.12 ± 0.072.

Regarding “Scaffold attachment factor B1 S55N, Q15424”, the abundance fitness is -0.13 ± 0.08.

In turn, “Scaffold attachment factor B1 S55P, Q15424” showed an abundance fitness of -0.429 ± 0.1.

Substance “Scaffold attachment factor B1 S55Q, Q15424” showed an abundance fitness of -0.133 ± 0.059.

“Scaffold attachment factor B1 S55R, Q15424” came in with an abundance fitness of -0.083 ± 0.06.

“Scaffold attachment factor B1 S55T, Q15424” returned an abundance fitness of -0.199 ± 0.071.

“Scaffold attachment factor B1 S55V, Q15424” displayed an abundance fitness of -0.081 ± 0.055.

Take “Scaffold attachment factor B1 S55W, Q15424”: the abundance fitness was -0.287 ± 0.056.

In turn, “Scaffold attachment factor B1 S55Y, Q15424” yielded an abundance fitness of -0.307 ± 0.08.

As to “Scaffold attachment factor B1 S79A, Q15424”, the abundance fitness was -0.127 ± 0.065.

Consider “Scaffold attachment factor B1 S79C, Q15424”, for which the abundance fitness was -0.286 ± 0.077.

With “Scaffold attachment factor B1 S79E, Q15424”, the abundance fitness is -0.288 ± 0.097.

Regarding “Scaffold attachment factor B1 S79F, Q15424”, the abundance fitness was -0.239 ± 0.08.

“Scaffold attachment factor B1 S79G, Q15424” registered an abundance fitness of -0.119 ± 0.062.

For “Scaffold attachment factor B1 S79H, Q15424”, the abundance fitness is -0.266 ± 0.086.

Consider “Scaffold attachment factor B1 S79K, Q15424”, for which the abundance fitness is -0.229 ± 0.1.

Turning to “Scaffold attachment factor B1 S79L, Q15424”, the abundance fitness was -0.118 ± 0.068.

“Scaffold attachment factor B1 S79M, Q15424” had an abundance fitness of -0.136 ± 0.063.

As to “Scaffold attachment factor B1 S79N, Q15424”, the abundance fitness is -0.264 ± 0.091.

For the substance “Scaffold attachment factor B1 S79P, Q15424”, the abundance fitness was -0.108 ± 0.06.

“Scaffold attachment factor B1 S79Q, Q15424” registered an abundance fitness of -0.443 ± 0.11.

Take “Scaffold attachment factor B1 S79R, Q15424”: the abundance fitness is -0.25 ± 0.081.

As for “Scaffold attachment factor B1 S79T, Q15424”, the abundance fitness is -0.129 ± 0.062.

On to “Scaffold attachment factor B1 S79V, Q15424”, for which the abundance fitness was -0.131 ± 0.06.

Regarding “Scaffold attachment factor B1 S79W, Q15424”, the abundance fitness is -0.409 ± 0.087.

For “Scaffold attachment factor B1 S79Y, Q15424”, the abundance fitness was -0.286 ± 0.078.

For “Scaffold attachment factor B1 T26A, Q15424”, the abundance fitness was -0.282 ± 0.12.

“Scaffold attachment factor B1 T26C, Q15424”: the abundance fitness was -0.22 ± 0.079.

“Scaffold attachment factor B1 T26D, Q15424”: the abundance fitness was -0.915 ± 0.36.

For the substance “Scaffold attachment factor B1 T26E, Q15424”, the abundance fitness was -0.242 ± 0.13.

In the case of “Scaffold attachment factor B1 T26G, Q15424”, the abundance fitness is -0.304 ± 0.071.

For “Scaffold attachment factor B1 T26I, Q15424”, the abundance fitness is -0.314 ± 0.14.

As for “Scaffold attachment factor B1 T26K, Q15424”, the abundance fitness was -0.31 ± 0.14.

Regarding “Scaffold attachment factor B1 T26L, Q15424”, the abundance fitness was -0.518 ± 0.15.

Take “Scaffold attachment factor B1 T26M, Q15424”: the abundance fitness is -0.213 ± 0.12.

“Scaffold attachment factor B1 T26N, Q15424” returned an abundance fitness of -0.936 ± 0.37.

As to “Scaffold attachment factor B1 T26P, Q15424”, the abundance fitness is -0.565 ± 0.16.

“Scaffold attachment factor B1 T26Q, Q15424”: the abundance fitness is -1.01 ± 0.34.

“Scaffold attachment factor B1 T26S, Q15424” came in with an abundance fitness of -0.452 ± 0.099.

With “Scaffold attachment factor B1 T26V, Q15424”, the abundance fitness was -0.417 ± 0.12.

“Scaffold attachment factor B1 T26W, Q15424” returned an abundance fitness of -0.355 ± 0.075.

Take “Scaffold attachment factor B1 T28A, Q15424”: the abundance fitness was -0.519 ± 0.083.

With “Scaffold attachment factor B1 T28D, Q15424”, the abundance fitness was -0.257 ± 0.1.

Take “Scaffold attachment factor B1 T28E, Q15424”: the abundance fitness was -0.261 ± 0.08.

Substance “Scaffold attachment factor B1 T28F, Q15424” gave an abundance fitness of -0.142 ± 0.084.

Substance “Scaffold attachment factor B1 T28G, Q15424” came in with an abundance fitness of -0.337 ± 0.055.

In the case of “Scaffold attachment factor B1 T28H, Q15424”, the abundance fitness is -0.434 ± 0.09.

In turn, “Scaffold attachment factor B1 T28I, Q15424” gave an abundance fitness of -0.038 ± 0.065.

“Scaffold attachment factor B1 T28L, Q15424” registered an abundance fitness of -0.261 ± 0.07.

In turn, “Scaffold attachment factor B1 T28M, Q15424” yielded an abundance fitness of -0.234 ± 0.083.

Substance “Scaffold attachment factor B1 T28N, Q15424” registered an abundance fitness of -0.196 ± 0.099.

As for “Scaffold attachment factor B1 T28P, Q15424”, the abundance fitness is -0.348 ± 0.07.

With “Scaffold attachment factor B1 T28Q, Q15424”, the abundance fitness is -0.485 ± 0.073.

“Scaffold attachment factor B1 T28R, Q15424” had an abundance fitness of -0.301 ± 0.055.

“Scaffold attachment factor B1 T28S, Q15424” registered an abundance fitness of -0.183 ± 0.055.

“Scaffold attachment factor B1 T28V, Q15424” gave an abundance fitness of -0.229 ± 0.056.

“Scaffold attachment factor B1 T28W, Q15424” came in with an abundance fitness of -0.455 ± 0.088.

Turning to “Scaffold attachment factor B1 T28Y, Q15424”, the abundance fitness was -0.073 ± 0.068.

For “Scaffold attachment factor B1 T78A, Q15424”, the abundance fitness was -0.345 ± 0.09.

With “Scaffold attachment factor B1 T78C, Q15424”, the abundance fitness is -0.267 ± 0.079.

For “Scaffold attachment factor B1 T78D, Q15424”, the abundance fitness was -0.271 ± 0.086.

Take “Scaffold attachment factor B1 T78F, Q15424”: the abundance fitness is -0.323 ± 0.1.

“Scaffold attachment factor B1 T78H, Q15424” registered an abundance fitness of -0.427 ± 0.096.

“Scaffold attachment factor B1 T78I, Q15424” showed an abundance fitness of -0.17 ± 0.069.

For “Scaffold attachment factor B1 T78K, Q15424”, the abundance fitness was -0.131 ± 0.076.

Substance “Scaffold attachment factor B1 T78L, Q15424” registered an abundance fitness of -0.091 ± 0.057.

As to “Scaffold attachment factor B1 T78M, Q15424”, the abundance fitness was -0.356 ± 0.086.

Substance “Scaffold attachment factor B1 T78N, Q15424” registered an abundance fitness of -0.182 ± 0.11.

As to “Scaffold attachment factor B1 T78P, Q15424”, the abundance fitness is -0.21 ± 0.071.
